Data published in a protein production outcome set (Wang et al. 2014).

Assay: label from the status in PepcDB records

Row | Sequence | protein production
1 | MSRSVPDRWNMHKPMLCDSLPTASRTAAAILNLAQREDVTAEALAQLIQTDPALTGRILRFANAPAQGTRRPVASVIDAIDLVGLPAVRQFALSLSLIDAHREGRCEAFDYAAYWQKSLARAVALQSITAQASTVAPKEAFTLGLLADVGRLALATAWPEEYSECLRKADGEALIALERERFATDHDELTRMLLTDWGFPQVFIDALQLSQQDEIRDEGRTGRFARQLALAQHIADHRLAEEPRRAALSPLLRAEARRCGLGDEDLARLLADPPADWLDWTRTIGLPGDAPTGGAEPSRPPPQTDEKLHVLLADDDPIMLARLSRQLEADGHHVASRRDGETALAYALEHQPEMVITDWHMKPMNGLELCRALRESALGGNVYIVMLTASESEDALVEAFGAGIDDYVIKPPSVRVLKARIRAGQRIITLHKKLARERKEIERYSSELAAANRRLELMAHTDQLTGLPNRRYAMDRLEREWAQARTFDRPLSIMMLDLDWFKSINDSLGHDAGDQALVHAARVMRETVRTSDVVCRMGGEEFLIIIPDTAGPAAIQTAERVRSAVEQQQPAKLKLSRPLTASIGVADSTSAPSLKDLLLKADNALYQVKQNGRNGVRYAGLLEHHHHHH | not failed
2 | MTPYRRILLIMTEAQANAALSRAMALSAASGASLHVLGIHESGVLRLPHELQEAPLHSASFMHFSTELKALLDEQSFVGARPGFEAVETSNPRDQLPACIARYAPDLVIKGCPGHSLLEQIARTSLDQALLH | failed
3 | MTSTPGISDSLLSSMNGSGANNNTSAISETQDRFMKLLIAQMKNQDPLNPMDNAEVTSQMAQLSTVTGIEKMNASLSTFISSMQATQALQASSLIGNTVLVEGNSTYLAPAETEGESAAYLGVELPIGADKLTVNIKNGAGNVVKTITVTNQPAGISSLGWNGYGDDGTKLPDGRYTIEATATTGNSSVASTPLSYEQVMSVSTGSDGVKLNLSNLAAITTDQIKQIF | not failed
4 | MVTPAQVARRAALWMLTSTVAFGLMAITIRLASSTIATAEIAFFRNAFGLLALLPLILRPGKPLPRTRQLPQYFARTLIGLASMLCGFWAIGHLPLSQAISLSYSTPLFVTVLAVVWLHEQVRLRRWLAVAAGFIGVLVILRPGSSTFTPGLLIALLAAVISAIVAIQIKQLSRSDDSDTVVFYTYVFWVPMSLIPALFQWTWPQGIGWVWLVATGIFGTAGQLFWTRALKLGEVSALQPISFMQLPLVALLGWWLFGEAIERHTVIGAAIIIGANVYIAHRETVLARRAATHAPVEGAKPGE | failed
5 | MDPEKGTIRLDFMHSLGTWMVPELIRTFRAEHPNVEFQLHQAAAMLLVDRVLADETDLALVGPKPAEVGTSLGWAPLLRQRLALAVPADHRLASFSGQGELPLITAAEEPFVAMRAGFGTRLLMDALAEEAGFVPNVVFESME | failed
6 | MSVQLVKGVNLHVIPTEKYKTVRLLVRFNTRLNHETITKRTLLSSLMETNSLNYPNQVKLSERLAELYGASFGIGVSKKGNQHWFNISMNIVNDHYLQDSQVLAEAVDFLKEIIFAPNIQAGQFEAETFQREKENLKAYLESIVEDKQTYASLALQSVYFNQSEDQKIPSFGTVAALAEETAASLAAYYQKMLAEDQVDIFVLGDVNEAELVPLFKQLPFTPREEGKAAIFYNQPIRNVIEERTEREVLAQSKLNLAYNTDIYYGDSYYFALQVFNGIFGGFPHSKLFMNVREKEHLAYYASSSIDTFRGFMTVQTGIDGKNRNQVLRLISTELENIRLGKIRELEIEQTKAMLKNQYILALDNAGAWLEKEYLNELMPQTMLTAEEWIARINAVTIPEIQEVAKRLELQAIFFLEGETEND | not failed
7 | MGKSDFIKVNVSNSHNDAVAFEVKLAKDLTVAQLKTKLEILTGGCAGTMKVQVFKGDTCVSTMDNNDAQLGYYANSDGLRLHVVDS | not failed
8 | MTNKQKMRKRRRALLCVFAAFAFSFNPLGKIAYATPKQDTSVVNYVKTQEETSNSIQNQPISSYWYPEDLLKWSANNDKDAKFNKSTVPLAKRVEKDKLDTINDTQNKDVKVVAISIMNANTSGNPSQGSNKFSANTFSYWQYIDKLVYWGGSAGEGLIVPPSPDVTDSAHRNGVPVLGTVFFPMTAHGGKMEWLNKFLEKDANGNFPIVDKLIEVAENYGFDGWFINQETEGTEQEPLTPEHAKLMQELIKQFKAKSNGKFEIMWYDSMTKDGDMDWQNALTDKNEYFLLDGDKNKVADSIFLNFWWTYNSLKDKDLLRVSNEKAKEIGINPYDLYAGIDVQANGYKTPLRWTHYQRDDQAPFTSLGLYCPSWTYFDAKTPEQFQENENRLWVNEHGDPSKTTNAQGVDWRGISTYSVEKSAVTSLPFTTNFNIGNGYDFYVDGNKVSTQDWNNRSLNDIMPTYRWVISNEENNNVKADIDYTTAYYGGNSIKLSGYLAEGKASTIKLYSSDLTLPEGVQFTTTAKANGNTVDMDLVLTFHDGTETTISADKKLGTDWTKLNYDVSPYVGKSIKTISYKLSSPVCVDNFSANLGNITIEIPNSSSKVNISNAKLNDVDFKDGIYAGARLSWSPEGNSSDVHHYEIYRVMNDGTKVLLGATPNTSYYVSDLRRNDKETNTNFEVVAVNKNFNRGNSQSINMEWPAYPAPTASFKVSNTLIAPGQSVTFTNTSSEVTEEIQWKFPGAKVESSTEQNPTVTYEKEGVYPVILTAKNSSGENVETKTELITVTNAAKDGLVNLSLNKSAKASSFVNENEAPQYALDGNVKTKWCAVGSAPHTLTIDLGDIKTIGELEISHAEAGGESSGMNTKAYSFEVSNDGENFTPVLNVDDNTKAISNDAFPVTKARYVRLNIIQPTQGADSAARIYEVAVKGLDGNVDLPPVMNPDDSNKPVDPDQPENPDKPNNPEKPENPDNPGNTDKPVNPDQPGDSEKPETPNKPGDTENPEGKPANPSDLVSKEITENSALLSWKAPEKVESIQEYVVYQDGKEIGRVPTDKTPLEFLVKDLKPNTKYNFEVSSIDKDGKESDKISLEVTTKKKDNGNLPNTGSPIGAGALATTGIALSSAGVYLTLKKKRK | failed
9 | LPAGLYFVGTPIGSARDITLRALDVLASAEVIAAEDTRSLRHLLDIHGVPLDGRRVLAYHDHSGAGAQARLLEALAEGKSVAYASEAGMPLIADPGFELSRAAAEAGHMVTC | not failed
10 | MKIALFGTSADPPTLAHRAILIWLAQHFDQVAVWAADNPFKQGPNPETGHWASLGDRQAMLKLLVEDVQKDYATVQIWEDLSDRRSLISLQRAQQRWGLEPDYALVVGADLIRQISQWYAVKELLPAVQLVIFPRPGYGINQADLDKLAQLGGHYQLVNQGDDQAITPPISSSIYRQIRDDDLIPDPVQSYIQQRQLYRQ | failed
11 | MIKQDVICYEKEDVVKRNNINITGGGEKTVLLAHGFGCDQNMWRFMLPELEKQFTVIVFDYVGSGQSDLESFSTKRYSSLEGYAKDVEEILVALDLVNVSIIGHSVSSIIAGIASTHVGDRISDITMICPSPCFMNFPPDYVGGFERDDLEELINLMDKNYIGWANYLAPLVMGASHSSELIGELSGSFCTTDPIVAKTFAKATFFSDYRSLLEDISTPALIFQSAKDSLASPEVGQYMAENIPNSQLELIQAEGHCLHMTDAGLITPLLIHFIQNNQTRA | not failed
12 | MWTTNIIKTPRGKFEYFLKGEGPPLCVTHLYSEYNDNGNTFANPFTDHYSVYLVNLKGCGNSDSAKNDSEYSMTETIKDLEAIREALYINKWGFAGHSAGGMLALVYATEAQESLTKIIVGGAAASKEYASHKDSIYCSKNVKFNRIVSIMNALNDDSTVQEERKALSREWALMSFYSEEKLEEALKLPNSGKTVGNRLNYFRQVEYKDYDVRQKLKFVKIPSFIYCGKHDVQCPYIFSCEIANLIPNATLTKFEESNHNPFVEEIDKFNQFVNDTL | not failed
13 | VTRAIILAHGYATASSIANVANRLLKSQLFESFDMPLDVTPEAIANQVMAYIESHALASGLIILVDMGSLNAIHRHFNRRLSTPMAIINNVSTGMAMYVGERILQGVMLEDIVREIGDDLAVEHQLYYPQTDKP | failed
14 | MNYSSRQQPKRNWLRKVDWILVLVISLLALTSVILISSAMGGGQYSANFSIRQIIYYIFGAIIAFLIMIISPKKIKNNTYILYSIFCVLLIGLLILPETSITPIINGAKSWYSFGPISIQPSEFMKIILILALAKTISKHNQFTFNKSFQSDLMLFFKILGVSIIPMALILLQNDLGTTLVLCAIIAGVMLVSGITWRILAPLFIVAFVSGSSIILAIIYKPSLIENLLGIKMYQMGRINSWLDPYSYSSGDGYHLTESLKAIGSGQLLGKGYNHGEVYIPENHTDFIFSVIGEEMGFIGSVLLILLFLFLIFHLIRLASKIDSQFNKVFIIGYVSLIVFHVLQNIGMTVQLLPITGIPLPFISYGGSSLWSLMTGIGVVLSIYYHEPQRYEITTLSKKSNTI | failed
